From publication PMC12203670, “MTX2 facilitates PKM2 tetramerization to promote cardiac glucose metabolism and protects the heart against ischemia/reperfusion injury” (Theranostics, 2025)
Where “and” joins values, the source holds several entries; their conditions need not be identical. Equal entries are not always repeated.

Target: the molecule itself
Test: cross-linking; glutaraldehyde cross-linking, Western blot of PKM2 oligomers; Mtx2 KO H9C2 cells overexpressing MTX2 mutants, H/R

B1: PKM2 in Mtx2 KO H9C2 cells (cross-linking) (enzyme)
chain: not shown
notes: pyruvate kinase PKM, splice isoform M2; also called dimeric PKM2; source: Mtx2 KO H9C2 cells overexpressing MTX2 mutants, H/R
B1 was tested, and the “stoichiometry N” value was 2 and 4.
